Data from patent US7629323B2, “Manipulation of neuronal ion channels” (Northwestern University, priority 2003, dated 2009).

What was measured:
[1] = target: T1, homomeric Kv3.4a channels (Rattus norvegicus, UniProt Q63734); assay: Whole-cell recording of homomeric Kv3.4a channels expressed in HEK293 cells; type: cell-based; conditions: n=5
T1 construct: expressed in transfected cells; host or cells: HEK293
T1 sequence (Q63734 1-625): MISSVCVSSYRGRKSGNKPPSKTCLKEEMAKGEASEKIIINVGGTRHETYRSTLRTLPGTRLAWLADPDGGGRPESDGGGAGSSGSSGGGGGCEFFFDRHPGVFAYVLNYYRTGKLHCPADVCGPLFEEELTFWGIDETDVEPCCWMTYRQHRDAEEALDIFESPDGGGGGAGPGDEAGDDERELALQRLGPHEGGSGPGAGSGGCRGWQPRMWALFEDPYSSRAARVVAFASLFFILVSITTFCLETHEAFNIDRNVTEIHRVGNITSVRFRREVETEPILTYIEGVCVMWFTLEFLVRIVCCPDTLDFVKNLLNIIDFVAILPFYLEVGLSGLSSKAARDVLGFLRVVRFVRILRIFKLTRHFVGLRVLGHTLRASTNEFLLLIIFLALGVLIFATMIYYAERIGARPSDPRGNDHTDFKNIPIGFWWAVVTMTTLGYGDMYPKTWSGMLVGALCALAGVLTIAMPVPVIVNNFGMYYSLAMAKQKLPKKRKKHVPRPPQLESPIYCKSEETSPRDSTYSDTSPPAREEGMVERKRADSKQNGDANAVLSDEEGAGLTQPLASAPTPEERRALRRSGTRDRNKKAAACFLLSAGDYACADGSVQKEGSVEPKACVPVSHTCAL
Description: Electrophysiology. Whole-cell recordings used standard techniques^27,28. The internal solution consisted of (in mM): 30-90 K2SO4, 0-60 N-methyl-D-glucamine, 2 MgCl2, 40 HEPES, 5 EGTA, 12 phosphocreatine, 2 Na2ATP, 0.2 Na3GTP, and 0.1 leupeptin, pH 7.2 with H2SO4 (osmolarity 260-270 mOsm/l). The external solution consisted of (in mM): 140 Na-isethionate, 2 KCl, 4 MgCl2, 10 HEPES, 12 glucose and 0.001 TTX, pH 7.35 with NaOH (osmolarity 295-305 mOsm/l). The internal solution for current clamp recordings consisted of (in mM) 110 potassium methylsulphate, 2 MgCl2, 40 HEPES, 5 EGTA, 12 phosphocreatine, 2 Na2ATP, 0.2 Na3GTP, and 0.1 leupeptin, pH 7.2 with H2SO4 (osmolarity 260-270 mOsm/l). In the case of current clamp recordings, TTX was omitted from external solution. For the recordings in the presence of Ca^+2 ions EGTA was omitted from internal solution and 4 mM of MgCl2 was substituted by 2 mM of CaCl2 and 2 mM of MgCl2. […] Recordings were obtained with Axon Instruments 200 patch-clamp amplifier and controlled and monitored with a PC running pClamp software (version 7.0) (Axon Instruments Inc., Union City, Calif.). […] After seal rupture, series resistance (2-10 MΩ) was compensated (75-90%) and periodically monitored. […]
Single cell RT-PCR (scRT-PCR). […] In the case of co-transfection with Kv3.4a and Kv3.1b cDNA, single cell RT-PCR was used to confirm the presence of both mRNAs in the recorded cell. […]

[2] = target: T2, homomeric Kv3.4 channels (Rattus norvegicus, UniProt Q63734); conditions: low micromolar concentrations; cited from earlier work
T2 sequence (Q63734 1-625): T1 sequence (Q63734 1-625)

Substance: BDS-I (AAPCFCSGKPGRGDLWILRGTCPGGYGYTSNCYKWPNICCYPH)
- effect on homomeric Kv3.4a channel currents [1]: slowed the rising phase of the currents but led to larger currents later in the step
- block of homomeric Kv3.4 channels [2]: blocks
